Test results published in publication PMC6103272, “Genome-Wide Association Studies of Free Amino Acid Levels by Six Multi-Locus Models in Bread Wheat” (Frontiers in Plant Science, 2018).

How the values were obtained:
[1] = system: N[C@@H](Cc1c[nH]c2ccccc12)C(=O)O; assay: decarboxylase kinetics, Michaelis-Menten fit; product tryptamine by LC-MS; assay type: biochemical, Oryza sativa; conditions: 50 ppm PLP, 10-1,250 uM tryptophan, assay buffer of the standard assay 50 mM Tris-HCl pH 8.0, 37 C
[2] = system: T1, TraesCS1D01G052500; assay: as above; assay type: biochemical, Triticum aestivum; conditions: 50 ppm PLP; 10-1,250 uM tryptophan; assay buffer of the standard assay 50 mM Tris-HCl pH 8.0, 37 C
T1 construct: gene TDC; full-length cDNA in pGEX-6p-1; E. coli BL21(DE3)

Row | Km [2] [µM] | Compound | Km [1] [mM] | kcat [1] [s⁻¹] | kcat/Km [1] [M⁻¹ s⁻¹]
1 | – | OsTDC1 (Oryza sativa Japonica Group) | 0.31 ± 0.03 | 3.66 ± 0.27 | 11800
2 | 100 ± 10 | N[C@@H](Cc1c[nH]c2ccccc12)C(=O)O [tryptophan] | – | – | –
